Reference: US20230304022, “CHIMERIC POLYPEPTIDES HAVING TARGETED BINDING SPECIFICITY” (The Scripps Research Institute, published 2023)

Target: MBP-TALE AvrXa7 NT-βN (synthetic, [XXX]=Y-H)
Assay: p228, FIG 26
Conditions: tags: MBP; label: 5'-biotin; hairpin

Binder | binding result
Avr 5'C biotin hairpin (dsDNA) DNA: ATCTTAGCACCTGGTTGGAGGGGGTTTATGGGGTTTTCCCCATAAACCCCCTCCAACCAGGTGCTAAGAT | binds
Avr 5'G biotin hairpin (dsDNA) DNA: ATCTTAGCACCTGGTTGGAGGGGGTTTATCGGGTTTTCCCGATAAACCCCCTCCAACCAGGTGCTAAGAT | binds
Avr 5'A biotin hairpin (dsDNA) DNA: ATCTTAGCACCTGGTTGGAGGGGGTTTATTGGGTTTTCCCAATAAACCCCCTCCAACCAGGTGCTAAGAT | binds
